Assay results from patent publication US20040223966A1 (Pfizer, published 2004).

Target: T1, ActRIIB-Fc (human)
T1 construct: The leader is stated as aa 1-21; also called ActRIIB fusion polypeptide; recombinant ActRIIB-Fc
Experiment: ELISA: ActRIIB-Fc coated at 1 ug/ml, biotinylated ligand titrated, SA-HRP detection
Experimental: Biotinylated mature BMP-11 was prepared from BMP-11 latent complex in the same manner as described above. Recombinant ActRIIB-Fc, prepared as described in Examples 3 and 4, was coated on 96-well flat-bottom assay plates (Costar, NY, Cat. No. 3590) at 1 μg/ml in 0.2 M sodium carbonate buffer (pH 10) overnight at 4° C. Plates were then blocked with 1 mg/ml bovine serum albumin and washed following standard ELISA protocol. 100 μl aliquots of biotinylated GDF-8 or BMP-11 at various concentrations were added to the blocked ELISA plate, incubated for 1 hr and washed. The amount of bound GDF-8 or BMP-11 was detected by Streptavidin-Horseradish peroxidase (SA-HRP, BD PharMingen, San Diego, Calif., Cat. No. 13047E) followed by the addition of TMB (KPL, Gaithersburg, Md., Cat. No. 50-76-04). Colorimetric measurements were done at […] in a Molecular Devices microplate reader.

T1 sequence (chain, as listed by the source): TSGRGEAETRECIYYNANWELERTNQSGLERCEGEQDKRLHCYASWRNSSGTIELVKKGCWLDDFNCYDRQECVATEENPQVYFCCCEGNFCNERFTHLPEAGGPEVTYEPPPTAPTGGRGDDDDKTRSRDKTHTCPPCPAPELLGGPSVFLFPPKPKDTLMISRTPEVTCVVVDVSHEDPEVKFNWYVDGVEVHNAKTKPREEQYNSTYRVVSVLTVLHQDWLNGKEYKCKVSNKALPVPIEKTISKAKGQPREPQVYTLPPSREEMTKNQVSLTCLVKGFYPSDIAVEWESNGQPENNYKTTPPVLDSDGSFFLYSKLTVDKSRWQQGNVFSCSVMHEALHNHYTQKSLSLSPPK

EC50: 0.04 µg/mL
B1: biotinylated mature BMP-11 (ligand, human, UniProt O95390 299-407, looked up)
chain: NLGLDCDEHSSESRCCRYPLTVDFEAFGWDWIIAPKRYKANYCSGQCEYMFMQKYPHTHLVQQANPRGSAGPCCTPTKMSPINMLYFNDKQQIIYGKIPGMVVDRCGCS
modifications: biotinylated with EZ-link Sulfo-NHS-Biotin, in the same manner as GDF-8; sites not stated
notes: mature; Active mature BMP-11 dimer purified from a cell line expressing recombinant human BMP-11; also called biotinylated BMP-11; GDF-11
